Experimental data from publication PMC7196836, “Molecular analysis of the ribosome recycling factor ABCE1 bound to the 30S post‐splitting complex” (The EMBO Journal, 2020).

Biological target: Thermococcus celer 30S small ribosomal subunit (T. celer (endogenous in T. celer cells)) (UniProt P29161)
Test: cryo-EM structure; post-splitting complex from 1 nmol T. celer 70S split by ABCE1^IIEA (8 uM), aPelota and aRF1 (5 uM each), 0.5 mM AMP-PNP, 50 mM HEPES-KOH pH 7.5, 30 mM KCl, 10 mM MgCl2, 2 mM DTT, 65 °C 15 min; cross-linked with 1% formaldehyde; 30S fractions of a 10-30% sucrose gradient

ABCE1^IIEA (E238A/E485A), hydrolysis-deficient ABCE1 from Saccharolobus solfataricus (from UniProt Q980K5 1-594) (enzyme)
percent of 30S particles associated with ABCE1 (3D classification): 97%
